Changes are numbered by the printed parent chain.

In assay [1] the target is T1, monkey DLL3 protein (screening antigen) (cynomolgus monkey, UniProt Q9NYJ7 27-492 (human entry), limits assumed).
T1 chain: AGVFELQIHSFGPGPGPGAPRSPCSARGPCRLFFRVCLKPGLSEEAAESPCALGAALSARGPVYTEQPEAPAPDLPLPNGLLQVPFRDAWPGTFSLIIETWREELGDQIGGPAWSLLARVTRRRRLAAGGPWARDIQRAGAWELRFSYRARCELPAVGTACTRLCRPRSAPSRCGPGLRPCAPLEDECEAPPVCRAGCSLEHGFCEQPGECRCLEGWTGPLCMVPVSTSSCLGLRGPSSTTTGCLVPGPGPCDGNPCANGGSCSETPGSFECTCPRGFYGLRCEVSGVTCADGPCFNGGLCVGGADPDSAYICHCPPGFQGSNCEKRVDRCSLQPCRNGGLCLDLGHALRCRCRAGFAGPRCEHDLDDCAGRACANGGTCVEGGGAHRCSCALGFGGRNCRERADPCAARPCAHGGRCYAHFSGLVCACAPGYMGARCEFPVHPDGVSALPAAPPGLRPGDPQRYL
Kind of assay: ELISA, hybridoma supernatant. The procedure: Spleen lymphocytes and the myeloma cells, Sp2/0 cells (ATCC® CRL-8287™), were fused by following an optimized electrofusion procedure to obtain hybridoma cells. Based on the growth density of hybridoma cells, the hybridoma culture supernatant was assayed using an ELISA method with binding to DLL3 protein and a FACS method with binding to DLL3 CHO-s cells.
(In an ELISA, binding on a coated surface is turned into a signal by an enzyme label.)

In a further assay the target is hIL5 (human, UniProt P05113 20-134). Kind of assay: ELISA.
The target in a further assay is hTSLP (human, UniProt Q969D9 29-159). Description: ELISA.
The target in another assay is T2, human DLL3 on cells (human, UniProt Q9NYJ7 27-618).
T2 sequence: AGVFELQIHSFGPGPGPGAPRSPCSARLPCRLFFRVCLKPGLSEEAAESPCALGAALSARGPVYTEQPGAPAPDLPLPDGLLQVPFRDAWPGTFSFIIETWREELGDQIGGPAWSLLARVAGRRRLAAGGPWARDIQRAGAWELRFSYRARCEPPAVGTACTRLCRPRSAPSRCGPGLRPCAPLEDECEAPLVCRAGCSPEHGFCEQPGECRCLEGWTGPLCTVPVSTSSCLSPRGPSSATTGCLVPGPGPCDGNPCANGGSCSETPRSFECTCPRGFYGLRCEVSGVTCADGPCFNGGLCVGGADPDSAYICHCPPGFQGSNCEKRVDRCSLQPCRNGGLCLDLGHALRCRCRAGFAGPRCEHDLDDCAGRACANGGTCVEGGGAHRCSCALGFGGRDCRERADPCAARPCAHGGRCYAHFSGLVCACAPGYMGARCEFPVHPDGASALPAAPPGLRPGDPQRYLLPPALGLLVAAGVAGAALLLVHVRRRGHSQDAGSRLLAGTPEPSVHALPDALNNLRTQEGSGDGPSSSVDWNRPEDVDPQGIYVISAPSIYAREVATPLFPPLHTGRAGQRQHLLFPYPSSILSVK
Description: cell-based or functional assay.

B1: mAb6 (antibody, V domains shown)
VH: EVQLQQSGPVLVKPGASVKMSCKASGYTFTDYYMNWVKQSHGKSLEWIGIINPYSGVTIYNHKFKGKATLTVDKSSNTAYMELNSLTSEDSAVYYCARQDSLLDYAMDYWGQGTSVTVSS
VL: DILMTQSPSSMSVSLGDTVSITCHASQGISGNMGWLQQKPGKSFKGLIYHGANLEDGVPSRFSGSGSGADYSLTISSLESEDFADYYCVQYAQFPYTFGGGTKLEIK
notes: murine hybridoma antibody (culture supernatant)
Take B1: the binding result in assay [1] was “binds”.

B2: mAb98 (antibody, V domains shown)
VH: EVQLVESGGGLVKPGGSLKLSCAASGFTFSDYGIHWVRQAPEKGLEWVAYISSGGYTIYYADTVKGRFTISRDNAKNTLFLQMTSLRSEDTAMYYCARGDYDDIFYTMDYWGQGTSVTVSS
VL: DIQMTQTTSSLSASLGDRVTISCRASRDITKFLNWYQQKPDGTVKLLIYYTSRLHSGVPSRFSGSGSGTDYSLTISNLDQEDIATYFCQQGNTLPWTFGGGTKLDIK
notes: as for B1
On to B2, for which the binding result in assay [1] was “binds”.

B3: HJ-5 (bispecific antibody)
chain 1: not shown
chain 2: DIQMTQSPSSVSASVGDRVTITCRASQDIANYLSWYQQKPGKSPKLLIYGTSNLEVGVPSRFSGSRSGTDFTLTISSLQPEDFATYYCLQDKEFPRTFGGGTKVEIKGGGGSSGAPRFLTRPKASVVSVGKDATLSSQIVGNPFPQVSWEKDKQPVTAGVRFRLAQDGDLYRLKILDLQLSDSGQYVSRARNAHGEAFACLGLQVDAEA
chain 3: EVQLVQSGAEVKKPGSSVKVSCKASGYTFSNYLIEWVRQAPGQGLEWIGVIDPGVGDTNYNENFKGRATLTADKSTSTAYIELSSLRSEDTAVYYCAREDNTGTAFDYWGQGTTVTVSSASTKGPSVFPLAPSSKSTSGGTAALGCLVKDYFPEPVTVSWNSGALTSGVHTFPAVLQSSGLYSLSSVVTVPSSSLGTQTYICNVNHKPSNTKVDKKVEPKSCDKTHTCPPCPAPEAAGGPSVFLFPPKPKDTLMISRTPEVTCVVVDVSHEDPEVKFNWYVDGVEVHNAKTKPREEQYNSTYRVVSVLTVLHQDWLNGKEYKCKVSNKALPAPIEKTISKAKGQPREPQVCTLPPSREEMTKNQVSLSCAVKGFYPSDIAVEWESNGQPENNYKTTPPVLDSDGSFFLVSKLTVDKSRWQQGNVFSCSVMHEALHNHYTQKSLSLSPGK
chain 4: SIVMTQTPLSLSVTPGQPASISCKASQSVSSDVTWYLQKPGQSPQLLIYYVSEHYTGVPDRFSGSGYGTDFTLKISRVEAEDVGVYYCQQHHRFPLTFGQGTKLEIKRTVAAPSVFIFPPSDEQLKSGTASVVCLLNNFYPREAKVQWKVDNALQSGNSQESVTEQDSKDSTYSLSSTLTLSKADYEKHKVYACEVTHQGLSSPVTKSFNRGEC
The term EC50 denotes the midpoint of the concentration-response curve. With B3, the EC50 with hIL5 came to 16 nM; with hTSLP it was 2.64 nM.

B4: HJ-9 (bispecific antibody)
chain 1: not shown
chain 2: B3 chain 2 with G108R, G109T, G110V, G111A, R121C
chain 3: B3 chain 3
chain 4: B3 chain 4
Consider B4, for which the EC50 came to 10.9 nM with hIL5 and 3.18 nM with hTSLP.

B5: HJ-10 (bispecific antibody)
chain 1: not shown
chain 2: B3 chain 2 with G108R, G109T, G110V, G111A, S137C, S188C
chain 3: B3 chain 3
chain 4: B3 chain 4
As to B5, the EC50 was 20.8 nM in the assay with hIL5 and 3.17 nM with hTSLP.

B6: HJ-7 (bispecific antibody)
chain 1: not shown
chain 2: B3 chain 2 with S137C, S188C
chain 3: B3 chain 3
chain 4: B3 chain 4
As to B6, the half-maximal effective concentration (EC50) amounted to 17.7 nM in the assay with hIL5 and 2.18 nM with hTSLP.

B7: HJ-6 (bispecific antibody)
chain 1: not shown
chain 2: B3 chain 2 with R121C
chain 3: B3 chain 3
chain 4: B3 chain 4
Take B7: the EC50 with hIL5 was found to be 37 nM; with hTSLP it was 2.88 nM.

B8: HJ-8 (bispecific antibody)
chain 1: not shown
chain 2: B3 chain 2 with G108R, G109T, G110V, G111A
chain 3: B3 chain 3
chain 4: B3 chain 4
On to B8, for which the EC50 was 18.7 nM with hIL5 and 3.33 nM with hTSLP.

B9: HJ-11 (bispecific antibody)
chain 1: not shown
chain 2: B3 chain 2 with G108R, G109T, G110V, G111A, A115C, S137C, S188C
chain 3: B3 chain 3
chain 4: B3 chain 4
Consider B9, for which the values for the concentration giving a half-maximal response (EC50) with hIL5 and in the assay with hTSLP were 9.46 nM and 3 nM, respectively.

B10: BI-764532 (bispecific antibody, human IgG1, kappa, lambda, L234A L235A)
chain 1: DIQMTQSPSAMSASVGDRVTITCRASQGISNYLVWFQQKPGKAPKRLIYAVSSLYSGVPSRFSGSGSGTEFTLTISSLQPEDFATYYCLQHDSYPYTFGQGTKLEIKRTVAAPSVFIFPPSDEQLKSGTASVVCLLNNFYPREAKVQWKVDNALQSGNSQESVTEQDSKDSTYSLSSTLTLSKADYEKHKVYACEVTHQGLSSPVTKSFNRGECGGGGSEGKSSGSGSESKSTEGKSSGSGSESKSTGGGGSQVQLVQSGAEVKKPGASVKVSCKASGYTFTSYYVHWVRQAPGQGLEWMVIINPGGGTTSYAQKFLGRVTMTRDTSTNTVYMELKSLRSEDTAVYYCARGEAVTGNYFYYGMDVWGQGTTVTVSSASTKGPSVFPLAPSSKSTSGGTAALGCLVKDYFPEPVTVSWNSGALTSGVHTFPAVLQSSGLYSLSSVVTVPSSSLGTQTYICNVNHKPSNTKVDKRVEPKSCDKTHTCPPCPAPEAAGGPSVFLFPPKPKDTLMISRTPEVTCVVVDVSHEDPEVKFNWYVDGVEVHNAKTKPREEQYNSTYRVVSVLTVLHQDWLNGKEYKCKVSNKALPAPIEKTISKAKGQPREPQVYTLPPSREEMTKNQVSLWCLVKGFYPSDIAVEWESNGQPENNYKTTPPVLDSDGSFFLYSKLTVDKSRWQQGNVFSCSVMHEALHNHYTQKSLSLSPG
chain 2: EAVVTQEPSLTVSPGGTVTLTCRSSTGAVTTSNYANWVQEKPGQLPRGLIGGTNKRAPWVPARFSGSLLGGKAALTLSGAQPEDEAEYFCALWYSNLWVFGGGTKLTVLGQPKAAPSVTLFPPSSEELQANKATLVCLISDFYPGAVKVAWKADGSPVNTGVETTTPSKQSNNKYAASSYLSLTPEQWKSHRSYSCQVTHEGSTVEKTVAPAECSGGGGSEGKSSGSGSESKSTEGKSSGSGSESKSTGGGGSEVQLVESGGGLVQPGGSLKLSCAASGFTFNTYAMNWVRQAPGKGLEWVARIRSKYNNYATYYADSVKDRFTISRDDSKNTAYLQMNNLKTEDTAVYYCVRHGNFGNSYVSWFAYWGQGTLVTVSAASTKGPSVFPLAPSSKSTSGGTAALGCLVKDYFPEPVTVSWNSGALTSGVHTFPAVLQSSGLYSLSSVVTVPSSSLGTQTYICNVNHKPSNTKVDKRVEPKSCDKTHTCPPCPAPEAAGGPSVFLFPPKPKDTLMISRTPEVTCVVVDVSHEDPEVKFNWYVDGVEVHNAKTKPREEQYNSTYRVVSVLTVLHQDWLNGKEYKCKVSNKALPAPIEKTISKAKGQPREPQVYTLPPSREEMTKNQVSLSCAVKGFYPSDIAVEWESNGQPENNYKTTPPVLDSDGSFFLVSKLTVDKSRWQQGNVFSCSVMHEALHNRFTQKSLSLSPG
Turning to B10, in the assay with human DLL3 on cells, the “IC50, PBMC killing of SHP77/lucG cells” value was found to be 0.0446 nM and the “Imax (%), PBMC killing of SHP77/lucG cells” value came out at 97%.

(Values after patent US20250376519A1 (JIANGSU HENGRUI PHARMACEUTICALS, published 2025).)
